Positions count from the first letter of the chain named.
Key:
HLA-DR3 (DRB1*0301) = HLA-DR3 (DRB1*0301) (Homo sapiens, UniProt P01903+P01911, A100K/A102G/A103R/A169T/F55Y/I96L/K41T/L162R/M171V/P40S/Q125H/Q178H/Q39Y/R42S/S66N/T106N/T262R/W38E/Y61H); assay: HLA II/peptide competition binding assay, DR3; conditions: ratio of IC50 of competitor peptide to IC50 of reference peptide; mean of at least two independent experiments; less than 100 = active
HLA-DRB4 (DRB4*0101) = HLA-DRB4 (DRB4*0101) (Homo sapiens, UniProt P01903+P13762, G164S); assay: HLA II/peptide competition binding assay, DRB4; conditions: ratio of IC50 of competitor peptide to IC50 of reference peptide; mean of at least two independent experiments; less than 100 = active
HLA-DP401 (DPB1*0401) = target: T1, HLA-DP401 (DPB1*0401) (Homo sapiens, UniProt P04440+P20036); assay type: binding; conditions: ratio of IC50 of competitor peptide to IC50 of reference peptide; mean of at least two independent experiments; less than 100 = active
T1 sequence (P04440 30-258): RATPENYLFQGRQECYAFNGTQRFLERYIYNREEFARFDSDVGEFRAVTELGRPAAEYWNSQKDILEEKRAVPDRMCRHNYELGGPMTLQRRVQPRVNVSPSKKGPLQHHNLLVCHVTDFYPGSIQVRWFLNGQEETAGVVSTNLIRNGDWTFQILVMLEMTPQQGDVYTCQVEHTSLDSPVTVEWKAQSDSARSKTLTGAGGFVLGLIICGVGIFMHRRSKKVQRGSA
T1 sequence (P20036 29-260): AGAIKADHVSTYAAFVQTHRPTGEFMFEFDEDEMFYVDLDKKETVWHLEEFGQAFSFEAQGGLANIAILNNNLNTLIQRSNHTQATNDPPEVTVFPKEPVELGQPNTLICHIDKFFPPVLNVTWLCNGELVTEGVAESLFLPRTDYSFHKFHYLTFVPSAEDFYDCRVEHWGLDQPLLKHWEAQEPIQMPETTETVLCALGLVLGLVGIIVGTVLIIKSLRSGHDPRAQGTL

HLA-DR13 (DRB1*1301) = HLA-DR13 (DRB1*1301) (Homo sapiens, UniProt P01903+P01911, A100E/A169T/K41T/L162R/M171V/P40S/Q125H/Q178H/Q39Y/Q99D/R42S/S66N/T262R/W38E/Y61H); assay: HLA II/peptide competition binding assay, DR13; conditions: ratio of IC50 of competitor peptide to IC50 of reference peptide; mean of at least two independent experiments; less than 100 = active
HLA-DP402 (DPB1*0402) = target: T2, HLA-DP402 (DPB1*0402) (Homo sapiens, UniProt P04440+P20036, A65V/A84D/A85E/L207M); assay type: binding; conditions: ratio of IC50 of competitor peptide to IC50 of reference peptide; mean of at least two independent experiments; less than 100 = active
T2 sequence (P04440 30-258 A65V/A84D/A85E): T1 sequence (P04440 30-258) with A36V, A55D, A56E
T2 sequence (P20036 29-260): T1 sequence (P20036 29-260)

HLA-DR15 (DRB1*1501) = HLA-DR15 (DRB1*1501) (Homo sapiens, UniProt P01903+P01911); assay: HLA II/peptide competition binding assay, DR15; conditions: ratio of IC50 of competitor peptide to IC50 of reference peptide; mean of at least two independent experiments; less than 100 = active
HLA-DR4 (DRB1*0401) = HLA-DR4 (DRB1*0401) (Homo sapiens, UniProt P01903+P01911, A100K/A169T/F76Y/I96L/K127E/L162R/M171V/N62H/P40V/Q125Y/R42H/S133A/S149N/S66Y/V115G/V209L/W38E); assay: HLA II/peptide competition binding assay, DR4; conditions: ratio of IC50 of competitor peptide to IC50 of reference peptide; mean of at least two independent experiments; less than 100 = active
HLA-DRB3 (DRB3*0101) = HLA-DRB3 (DRB3*0101) (Homo sapiens, UniProt P01903+P79483); assay: HLA II/peptide competition binding assay, DRB3; conditions: ratio of IC50 of competitor peptide to IC50 of reference peptide; mean of at least two independent experiments; less than 100 = active
[1] = test system: 12 predominant HLA II molecules; assay: HLA II/peptide binding assays, count over the panel; parameters: species or system human; conditions: relative activity of less than 100 characterizes the active peptides
Text: The assays for binding to HLA II molecules are competition binding assays with immunoenzymatic visualization, as described in U.S. Pat. No. 6,649,166 and PCT international application WO 03/040299, respectively, for the HLA-DR and HLA-DP4 molecules. The implementation of these assays for measuring the binding activity of peptides derived from various antigens is illustrated in U.S. Pat. No. 6,649,166 and PCT international applications WO 02/090382, WO 03/040299 and WO 2004/014936.
The sensitivity of each test is reflected by the IC50 values observed with the nonbiotinylated peptides which correspond to the tracers. […] The results are expressed in the form of relative activity (ratio of the IC50 of the competitor peptide to that of the reference peptide (nonbiotinylated peptide which corresponds to the tracer)). A relative activity of less than 100 characterizes the active peptides.

[2] = test system: CD8^+ T lymphocytes of healthy individuals possessing the HLA-A2 molecule; assay: In vitro induction of peptide-specific CD8+ T lymphocyte lines, IFN-γ Elispot; assay type: cell-based, human; conditions: for Ability to induce an in vitro CD8+ T lymphocyte response: cells from healthy HLA-A2 individuals, 4 weeks of culture
Procedure: The PBMCs were then cultured in AIM V medium (Life Technologies) and incubated overnight at 37° C. in the presence of 5% CO2/95% air. The CD8^+ T lymphocytes were purified from the nonadherent cells by immunomagnetic sorting, and frozen. The adherent cells were differentiated into immature dendritic cells by culturing for 5 days in AIM V medium containing 1000 U/ml of GM-CSF and 1000 U/ml of IL-4, and then into mature dendritic cells by culturing for 2 days in the presence of 1 μg/ml of LPS, 1000 U/ml of IL-4 and 1000 U/ml of GM-CSF. The mature dendritic cells were incubated in the presence of 5 μg/ml of beta-2-microglobulin and 10 μg/ml of each of the peptides of table IV. After 4 hours, the cells were washed and then placed in culture in 96-well plates, in the presence of purified CD8 T lymphocytes in IMDM medium containing 10% of group AB human serum, IL-6 (1000 U/ml) and IL-12 (5 ng/ml). Each week, the culture was restimulated with autologous mature dendritic cells loaded with the peptide mixture mentioned above, in medium containing 20 U/ml of IL-2 and 10 ng/ml of IL-7. After 4 weeks of culture, the specificity of the T cell lines contained in each well was tested by IFN-γ Elispot.
Anti-IFN-γ antibodies (1-D1K, Mabtech) diluted to 2.5 μg/ml in PBS buffer were adsorbed onto nitrocellulose plates (Millipore) for 1 hour at 37° C. The plates were then washed with PBS and then saturated with Iscove medium containing 10% of group AB human serum (100 μg/well), for 2 h at 37° C.
In order to verify the specificity of the lines with respect to the HLA-A2 molecule, the C1R cells transfected with HLA-A2 (30 000 cells/well) and 5000 test lymphocytes were then added to the plates and incubated for 24 h at 37° C., in the presence or absence of a single peptide (10 μg of peptide) or of a mixture of peptides (10 μg of each peptide). For the dose-response analyses, the peptides are used at various concentrations ranging from 0.001 to 10 μg/ml.
After three successive washes with water, PBS buffer/0.05% Tween and PBS alone, 100 μl of biotinylated anti-IFN-γ secondary antibody (7-B6-1-biotin, Mabtech), diluted to 0.25 μg/ml in PBS containing 1% BSA, were added to each well. After one hour of incubation at ambient temperature, the plates were washed again and then incubated for one hour at ambient temperature with 100 μg/well of Extravidin-AKP (E-2636, Sigma), diluted to 1/6000. After washing of the plates in PBS buffer, 100 μl of NBT/BCIP substrate B-5655, Sigma), diluted in water (1 tablet in 10 ml of water), were distributed in each well. The immunoenzymatic visualization was stopped after approximately 10 minutes, by thorough rinsing of the plates in water. After drying of the plates, the colored spots were counted using an automatic reader (AID). The lines are considered to be positive when the number of spots is more than three times that obtained with the negative control (control without peptides) with a minimum of 50 spots. The control without presenting cells makes it possible to verify the specificity of the response for HLA-A2 (restriction control).

E T I R V T K P C T P K T K A (ETIRVTKPCTPKTKA) [MDK 119-133]
Relative binding activity, DR3 (HLA-DR3 (DRB1*0301)): >419
Relative binding activity, DRB4 (HLA-DRB4 (DRB4*0101)): >28 868
Relative binding activity, DP401 (HLA-DP401 (DPB1*0401)): >879
Relative binding activity, DR13 (HLA-DR13 (DRB1*1301)): >2 537
Relative binding activity, DP402 (HLA-DP402 (DPB1*0402)): >976
Relative binding activity, DR15 (HLA-DR15 (DRB1*1501)): >529
Relative binding activity, DR4 (HLA-DR4 (DRB1*0401)): 1 289
Relative binding activity, DRB3 (HLA-DRB3 (DRB3*0101)): >485

L L A L T S A V A K K K D K V (LLALTSAVAKKKDKV; MDK 14-28 peptide)
Relative binding activity, DR3 (HLA-DR3 (DRB1*0301)): >419
Relative binding activity, DRB4 (HLA-DRB4 (DRB4*0101)): >28 868
Relative binding activity, DP401 (HLA-DP401 (DPB1*0401)): >879
Total (number of the 12 predominant HLA II molecules bound) [1]: 4
Total (number of the 12 predominant HLA II molecules bound) ([1]; listed as 14-28): several
Relative binding activity, DP402 (HLA-DP402 (DPB1*0402)): >976
Relative binding activity, DR15 (HLA-DR15 (DRB1*1501)): >529
Relative binding activity, DRB3 (HLA-DRB3 (DRB3*0101)): >485

LALLALTSAV (MDK 12-21 peptide)
Peptide specificity of CD8+ T lymphocyte line 267.29A ([2]; FIG. 2): specific
Ability to induce an in vitro CD8+ T lymphocyte response [2]: induced CD8^+ T lymphocytes

LLALTSAVA (MDK 14-22 peptide)
Peptide specificity of CD8+ T lymphocyte line 278.11A ([2]; FIG. 2): specific
Ability to induce an in vitro CD8+ T lymphocyte response [2]: induced CD8^+ T lymphocytes

M Q H R G F L L L T L L A L L (MQHRGFLLLTLLALL; MDK 1-15 peptide)
Relative binding activity, DR3 (HLA-DR3 (DRB1*0301)): >419
Total (number of the 12 predominant HLA II molecules bound) [1]: 5
Total (number of the 12 predominant HLA II molecules bound) ([1]; listed as 1-15): several
Relative binding activity, DR13 (HLA-DR13 (DRB1*1301)): >2 537
Relative binding activity, DR15 (HLA-DR15 (DRB1*1501)): 211
Relative binding activity, DR4 (HLA-DR4 (DRB1*0401)): 226

NAQCQETIRV (MDK 113-122 peptide)
Ability to induce an in vitro CD8+ T lymphocyte response [2]: induced CD8^+ T lymphocytes

R G F L L L T L L A L L A L T (RGFLLLTLLALLALT; MDK 4-18 peptide)
Relative binding activity, DR3 (HLA-DR3 (DRB1*0301)): >419
Total (number of the 12 predominant HLA II molecules bound) [1]: 9
Total (number of the 12 predominant HLA II molecules bound) ([1]; listed as 4-18): several
Relative binding activity, DR13 (HLA-DR13 (DRB1*1301)): >2 537
Relative binding activity, DR4 (HLA-DR4 (DRB1*0401)): 136
